Experimental data: the DeepSol protein solubility set

assay: soluble on expression in E. coli; label from the status in PepcDB or PDB records

| Sequence | soluble on expression in E. coli |
| --- | --- |
| MGSDKIHHHHHHVPNEKLSNRDRLLAVRDIFEQYSDEEQTLTLEELSTELSKRGLIEKLSRKSLKEDIAALAKSGFDIHAEETKNGLAIPYHLVSRPFEYHHLRLLVDAIASAKFISESETEVLVRNIHTLTSKRLAKTLTPVIHTVKKPKGVIPFSIDTIQKAIIEQDIISFQYQGKFNERTRKFELRRDGDYYLVTPAHLIVDNGNYYLIGRDERVEEIRTYRVDRIVNCSVFEPAQTPVEVEATYLSSMFNMYGGEQEQLTLKFHESVMPTVVDRFGTDIRCRRLEGDWFEVKVGALFSQGFMMWLIQFAEQAEILEPALCREAFKNKVLELAKVYQAGVPVSPQMNESV | not soluble |
| MGSDKIHHHHHHVPNFLPINTILVPQGAEYKAVCRGLNGVTGSIPTVVAIPVGMKPLLKYLHQGQFLAPKSRVLIMGICGSLSDRYRVGDIVLYQDCIYQGKLLECDRTFTAQLHSSLSEKVSLVKSLTSDRMIWSAAEKLHLGETLAADVVDMEGFTALEFFNVGGVAVTMLRVVSDDCQHDIPDLTSAINSDGSLNPFSLAMAMLRQPLAATRLIRGSLTALKVLEQVTNMLFSGNRPE | not soluble |
| MGSDKIHHHHHHVRFCCHHDWLYGVLHLPQQPVTRGVLIVVGGPQYRVGSHRQFVLLARYLAERGIAVMRFDFRGMGDSDGEIRTFEHVGEDLRSAADFFFSECPFLEDIVIWGLCDAASAALFHAHQDSRVSGLVLLNPWVRTEQGIAKAYLKHYYLERLFDPEFWKKLLGGKFNPLASIRSLYEFGRNSLRGGKSPAVSEKSAGSACDLTVPLPERMLDGLKRFQGKILIITSGNDLTAREFLDLVDSSADWQATLRTKQTELCHMESANHTFSTREWRDQVTELTANRVLSW | not soluble |
| MGSDKIHHHHHHVRVLAIRHVEIEDLGMMEDIFREKNWSFDYLDTPKGEKLERPLEEYSLVVLLGGYMGAYEEEKYPFLKYEFQLIEEILKKEIPFLGICLGSQMLAKVLGASVYRGKNGEEIGWYFVEKVSDNKFFREFPDRLRVFQWHGDTFDLPRRATRVFTSEKYENQGFVYGKAVGLQFHIEVGARTMKRWIEAYKDELEKKKIDPRLLLETAEREEKVLKGLLRSLLERMVES | soluble |
| MGSDKIHHHHHHVRVPLLDRDHPRYGNDRFWPGMRAELAKLWRERGHAPILNPPRPRARTHKIQESRSMHLEVLRVPPTTADPEMADRPPLVFVHGAFAGAWCWRETFMPWFAARGWDTHALSLRGHGASDGAERLDSTRLADYADDLRRVIDELDRPPVLIGHSMGGMVVQKVLEDTQAAAAVLLASVPPTGLFSGSVLMALRHPLLCMALWRIQTFGPEEASLRMVEAGLFSTPLDAREAERYTALLQNESSRVVLDMTWFDVPRRRCPQELPLLVLGAEDDAFVPPIEVLATAAFHGTTAQLLPDIGHAMMLDRGWEKTASVMEEWLRCSAF | not soluble |
| MGSDKIHHHHHHVSKPLTGIHILVTRPSHQAGGLAGKIRAAGGEPCLFPVLEIQDISDPRPLLELIERLDEFYLAIFVSPNAVNKAMSVICAKRALPSDLKIATVGQGTARTLRRFGVSGVIVPAVRFDSEALLDMAELDRINVAGKRIIIFRGDNGRELLGETLRKRGASVEYAECYRRIRPEAEIGPLLAAWTRGEMNGVTVTSSEGLRNLWEMVGDSGRTWLENTPLFVSHERIAGVARKLGFNRVIVTAAGDDGLVAGLQDYFSGHMG | not soluble |
| MGSDKIHHHHHHWFMPFDNWLYQLQNADPVEISSSGFEIAVIDYSKDGSESGEYSPEEIKIMVDAGVVPVAYVNIGQAEDYRFYWKESWYTNTPEWLGEEDPAWPGNYFVKYWYNEWKEIVFSYLDRVIDQGFKGIYLDRIDSFEYWAQEGVISRRSAARKMINFVLEIAEYVRERKPDMLIIPQNGENILDFDDGQLASTVSGWAVENLFYLKTIPLEENETKSRLEYLIRLNRKGKFILSVDYVDDGSDSFENISRILDYYEKAKRNGCIPYAARSDLELDEMNVIEGIQPPEALKDYESRTYR | not soluble |
| MGSEFSIDQKRYLEGFATGVTAARAARGSLPAGSAASPSGPDAIHHQAQDRVTASGKKLNDQEKWKREQHPFDAYARLKQQAKDNAAPKPADNFRWRYYGLFYVAPAQTSYMCRLRIPNGILTSWQMAGLAYLADTLADGYAHVTTRANLQMREIAPKDAVQLLQGIESLGLWARGSGADNIRNVTGSATAGIDPQELIDTRAYARDWHFYILNERALFGLPRKFNVAFDGGGLIPTLEDTNDIAFQAVTIGDGHGVAPGVYFRLALGGITGHKDFARDTGVIVAPDEATEVADAIVRVFIEHGDRTDRNKARLKYVLDAFGFDKYLELVEDKLGRKLIRVPAEAAAPRPAQDRAAHLGVHPQQQAGMNWIGVRLATGHLTSVQMRGLAEIARSFGDGDLRLTVWQNLLISGVPDARVTDATAAIEALGLAITASPLRAGLIACTGASGCRFAAAHTKETAEAIAQYCEPRVPLDTPINIHLTGCHNSCAQHFISDIGLIGAKVAVSDEDSVEGFHIHVGGGFGVDAAIGTEVLRDVKQDDAPRVIERMLQTYLARRASPAETFLAFVRRQDAAALQQLFAYEQSPETVA | not soluble |
| MGSEQNDSTSFTQSQASEPKLCVKGCGFFGSPSNMDLCSKCYRGICAEEAQTAVAKAAVEKSFKPSPPRSLFIAEPPAVVVEPKPEKAAVVVVSAEPSSSAVPEANEPSRPARTNRCLCCNKKVGIMGFKCKCGSTFCGEHRYPETHDCSFDFKEVGRGEIAKANPVVKADKIQRF | soluble |
| MGSGRTWRELKEVFPKLARAKYYTRARYGYCRGYEAVDFVESVRWYYYVLSGLVVLDRPEAKHLEHHHHHH | not soluble |
| MGSPLPFRLTCVWAGEPSMKKAIIFDCEFLCLEGSQRRFWCAAHDPDPVIAQIGAVKLGLEGGFPLLETYKVLISPVDRHGRRYAIDPFFTRLTGITEENIEAEGVPLQDALSSFDSFSEGAQCWSWGKDELNMMAISTYVAGIQPPMPACRFDNAVRLLLAAGMPVEDLAKTPSNSLADYYGVAHPPLQGHDALGDALSVSYALQHLLRSGKLKPEEFTLAA | soluble |
| MGSSHHHHHHSSENLYFQGHMSSRAETPRVPFLDLKAAYEELRAETDAAIARVLDSGRYLLGPELEGFEAEFAAYCETDHAVGVNSGMDALQLALRGLGIGPGDEVIVPSHTYIASWLAVSATGATPVPVEPHEDHPTLDPLLVEKAITPRTRALLPVHLYGHPADMDALRELADRHGLHIVEDAAQAHGARYRGRRIGAGSSVAAFSFYPGKNLGCFGDGGAVVTGDPELAERLRMLRNYGSRQKYSHETKGTNSRLDEMQAAVLRIRLAHLDSWNGRRSALAAEYLSGLAGLPGIGLPVTAPDTDPVWHLFTVRTERRDELRSHLDARGIDTLTHYPVPVHLSPAYAGEAPPEGSLPRAESFARQVLSLPIGPHLERPQALRVIDAVREWAERVDQA | soluble |
| MGSSHHHHHHSSGLVPRGSHMASAASYPPIKNTKVGLALSSHPLASEIGQKVLEEGGNAIDAAVAIGFALAVVHPAAGNIGGGGFAVIHLANGENVALDFREKAPLKATKNMFLDKQGNVVPKLSEDGYLAAGVPGTVAGMEAMLKKYGTKKLSQLIDPAIKLAENGYAISQRQAETLKEARERFLKYSSSKKYFFKKGHLDYQEGDLFVQKDLAKTLNQIKTLGAKGFYQGQVAELIEKDMKKNGGIITKEDLASYNVKWRKPVVGSYRGYKIISMSPPSSGGTHLIQILNVMENADLSALGYGASKNIHIAAEAMRQAYADRSVYMGDADFVSVPVDKLINKAYAKKIFDTIQPDTVTPSSQIKPGMGQLHEGSN | soluble |
| MGSSHHHHHHSSGLVPRGSHMASGMAPGGYVAPKAVWLPAVKAKGLEISGTFTHRQGHIYMEMNFTNKALQHMTDFAIQFNKNSFGVIPSTPLAIHTPLMPNQSIDVSLPLNTLGPVMKMEPLNNLQVAVKNNIDVFYFSCLIPLNVLFVEDGKMERQVFLATWKDIPNENELQFQIKECHLNADTVSSKLQNNNVYTIAKRNVEGQDMLYQSLKLTNGIWILAELRIQPGNPNYTLSLKCRAPEVSQYIYQVYDSILKN | soluble |
